In patent US20260263607A1, “INHIBITION OF MYC USING HIGH-DENSITY BRUSH POLYMERS” (Northwestern University, priority 2022, published 2026):
One block for each molecule: values may come before it. Ends that are not written are not given here. norbornene = norbornene on aminohexanoic acid N-terminal cap, polymerised by ROMP; Ahx = NCCCCCC(=O)O

Tests used:
b-HLH-LZ domain of Myc = target: T1, b-HLH-LZ domain of Myc (Homo sapiens, UniProt P01106); assay: Circular dichroism, dimerization with Myc b-HLH-LZ; format: binding; details: 1 μM PLP plus 5 μM bHlH
T1 construct: dimerize with either the b-HLH-LZ domain of Myc or full length Max
Experimental: (§1) Circular Dichroism (CD) Spectroscopy: CD spectra were obtained on a JASCO J-815 spectrometer equipped with a Peltier sample holder for temperature control. Polymer samples were dissolved in buffered solvent to concentrations of approximately 1 μM, and placed into a 1 cm quartz cuvette (Hellma). Protein samples were measured at 5 μM. All samples were equilibrated at room temperature for at least thirty minutes prior to measurement, with mixtures (i.e. protein and polymer combinations) being generally equilibrated for 12 hours prior to measurement. Spectra were obtained using a scan speed of 10 nm/min, using a 1 nm bandwidth, 4 sec response time, and with three accumulations. Background spectra of solvent were obtained prior to measurement of the sample solutions, and subtracted from the sample spectra using JASCO Spectra Analysis. For melting experiments, the temperature was varied between 2° and 91° C. with steps of 1° C./min, while measuring the ellipticity at 222 nm with a 2 nm bandwidth.
(§2) It has been previously reported (Blum et al., Kammeyer et al., and Berger et al., Mussel Adhesive-Inspired Proteomimetic Polymer, Journal of Am. Chem. Soc., 144, 4383-4392 (2022)) that peptide brush polymers with a DP around 15 synthesized in a similar manner maintain payload bioactivity and readily enter cells. As such, initial HYDRAC designs revolved around this molecular size range. […]

full length Max = full length Max (Homo sapiens, UniProt P61244); assay: Circular dichroism, binding to Max; details: 1 μM PLP plus 5 μM Max
Experimental: as §1, §2

[1] = target: T2, Myc protein from PC-3 cell lysates (Homo sapiens, UniProt P01106); assay: In vitro pull down assay with biotin-terminated PLPs; format: binding; details: PC-3 cell lysate, 10 μM or 2 μM biotinylated PLPs, FIG. 5B
T2 construct: Degradation of endogenous Myc protein in PC-3 cells was explored; endogenous in cells; host or cells: PC-3
Experimental: In vitro Pull Down Assay: To confirm PLP direct binding to endogenous Myc protein in cell lysate complex, biotin conjugated PLP was synthesized. Collected PC-3 cell pellet (2 million cells per pulldown condition) was suspended in 300 μL pulldown lysis buffer (pH 7.4 50 mM Tris-HCl, 150 mM NaCl, 1 mM EDTA, 0.1% IGEPAL nonionic detergent+1× Halt protease/phosphatase inhibitor cocktail) and lysed by repeat (3×) freeze-thawing in liquid nitrogen. The lysed cell pellets were spun at 4° C. for 15 minutes at 15,000 rpm on a Eppendorf 5424R centrifuge. The collected supernatants were pre-cleared with Pierce streptavidin magnetic beads (Thermo, 88817) for 1 hr at 4° C. For Examples 7 and 10, around 300 μg was applied to each sample and incubated with 5 μM of HYDRAC, scrambled HYDRAC, 10 μM of H1 homopolymer, scrambled H1 homopolymer or D-Biotin on a rotator over night at 4° C. […]
as §2, with “cells.” for “cells. As such, initial HYDRAC designs revolved around this molecular size range.”
(§3) This example provides data supporting toxicity of cancer cells in vitro after treatment with Myc-targeted PLPs. […] Cells were treated with PLP 5.2 for 3 days and cellular viability was recorded. […]

[2] = tested on: PC-12 Pheochromocytoma (which lack the Myc dimerization partner Max) cell lines; assay: PC-12 cell viability; format: cell-based; details: treated for 3 days, FIG. 5A
Experimental: (§4) Cell Culture: PC-3, PC-12, A549 cells were obtained from ATCC; Mouse MycCaP cells were the kind gift of Charles Sawyers (Memorial Sloan-Kettering Cancer Centre). All cells were authenticated and tested as mycoplasma-free. PC-3 and A549 cells were grown in F12K (Gibco) medium; MycCaP cells in DMEM medium (Gibco), all supplemented with 10% heat-inactivated fetal bovine serum (FBS, Gibco). PC-12 cells were grown in F-12K medium (ATCC) with 5% heat-inactivated FBS and 10% heat-inactivated horse serum (Thermo). All cells were cultured in 1% Penicillin-Streptomycin (10,000U/ml, Life Technologies) and 5% CO2 in a humidified incubator at 37° C.
(§5) Cell Proliferation Assays: Cell viability was estimated using the CellTiter-Glo® Luminescent Cell Viability Assay (Promega). […] After 3 to 5 days following the treatment, CellTiter-Glo reagent was added mixed 1:1 vol/vol with fresh media, plates incubated for 10 minutes on a shaking rotator followed by 10 minutes without shaking at room temperature (protected from light using aluminum foil) and luminescence was measured using plate reader (Perkin Elmer Victor 3V).
as §3

MYC T58A = target: T3, MYC T58A (Homo sapiens, UniProt P01106, T73A); assay: Western blot of MYC T58A in PC-3 MYC^T58A cells; format: cell-based; details: 6 h; 2.5 and 5 μM HYDRAC, FIG. 31C
T3 construct: expressed in transfected cells
Experimental: Western BlotAnalysis: Cells were lysed in RIPA (Sigma) lysis buffer containing 1×Halt™ Protease and Phosphatase Inhibitor Cocktail (ThermoFisher). Protein concentration was measured by Bio-Rad Bradford reagent. Protein samples were prepared by addition of 4×Laemmli Sample buffer (Bio-Rad) and 2-mercaptoethanol (Bio-Rad) and resolved on 4-12% SDS-PAGE (Sodium dodecyl sulfate-polyacrylamide) gels, which were subsequently transferred to PVDF membranes (Bio-Rad) using Trans-Blot Turbo transfer buffer (Bio-Rad) and a Trans-Blot Turbo Transfer System (Bio-Rad). Membranes were blocked for 1 h at room temperature with 5% blotting-grade blocker non-fat dry milk (Bio-Rad), followed by overnight 4° C. incubation with the appropriate primary antibody and 1 h room temperature incubation with an anti-rabbit or anti-mouse IgG (H+L)-HRP conjugate (Bio-Rad) secondary antibody. Blots were imaged using Supersignal West Femto Maximum Sensitivity Substrate detection system (Thermo) and the ChemiDoc Imaging System (Bio-Rad). The following primary antibodies were used: c-Myc (Y69) (Abcam #ab32072), Streptavidin-HRP (PerkinElmer NEL750), GAPDH (Cell Signaling #3683) and Actin (Cell Signaling #5125). Quantification analyses were performed by Biorad ChemiDoc Imager and Bio-Rad Image Lab software. […]

[3] = tested on: PC-3 prostate cancer cells; assay: PC-3 cell viability / toxicity (CellTiter-Glo); format: cell-based; details: PC-3, 72 hours treatment, FIG. 2D; read-out: IC50 (concentration of peptide which exhibited 50% cell viability for PC-3)
Experimental: as §4, §5
This example evaluates the toxicity of Myc-targeting PLPs in the PC-3 cancer cell line. • Example 3.1—Generation of Block and Statistical Copolymers. […] Cellular viability was assessed via the Cell Prolferation Assays protocol provided above. • Example 3.2—Results. […]

[4] = target: endogenous Myc protein of PC-3 cells (in PC-3 cell lysate or in the cells) (UniProt P01106 1-454, limits assumed); assay: cell-based or functional assay
Sequence of endogenous Myc protein of PC-3 cells (in PC-3 cell lysate or in the cells) (P01106 whole entry): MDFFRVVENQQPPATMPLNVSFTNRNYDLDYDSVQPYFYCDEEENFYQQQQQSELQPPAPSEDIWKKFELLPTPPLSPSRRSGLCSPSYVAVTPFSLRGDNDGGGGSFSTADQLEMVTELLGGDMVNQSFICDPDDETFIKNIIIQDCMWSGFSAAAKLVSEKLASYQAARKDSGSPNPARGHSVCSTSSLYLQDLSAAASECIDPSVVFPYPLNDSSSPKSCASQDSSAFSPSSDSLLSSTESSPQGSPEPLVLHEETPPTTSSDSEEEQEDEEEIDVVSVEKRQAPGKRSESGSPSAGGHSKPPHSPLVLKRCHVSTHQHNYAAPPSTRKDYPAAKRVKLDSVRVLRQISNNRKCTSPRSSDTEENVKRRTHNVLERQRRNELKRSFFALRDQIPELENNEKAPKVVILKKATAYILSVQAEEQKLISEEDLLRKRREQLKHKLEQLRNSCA

T2 sequence (P01106 whole entry): as above
T3 sequence (P01106 16-454 T73A): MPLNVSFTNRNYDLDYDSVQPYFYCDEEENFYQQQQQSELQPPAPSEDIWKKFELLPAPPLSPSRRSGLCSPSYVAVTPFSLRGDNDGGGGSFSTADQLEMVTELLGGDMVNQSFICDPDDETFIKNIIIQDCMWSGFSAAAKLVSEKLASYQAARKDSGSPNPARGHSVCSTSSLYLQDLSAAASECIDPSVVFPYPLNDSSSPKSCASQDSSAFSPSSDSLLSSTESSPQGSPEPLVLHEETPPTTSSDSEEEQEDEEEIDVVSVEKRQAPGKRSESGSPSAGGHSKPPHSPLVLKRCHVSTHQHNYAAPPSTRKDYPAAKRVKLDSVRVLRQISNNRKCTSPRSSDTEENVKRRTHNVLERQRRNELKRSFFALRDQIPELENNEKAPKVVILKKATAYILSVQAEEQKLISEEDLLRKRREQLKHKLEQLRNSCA
T1 sequence (P01106 368-454 limits assumed): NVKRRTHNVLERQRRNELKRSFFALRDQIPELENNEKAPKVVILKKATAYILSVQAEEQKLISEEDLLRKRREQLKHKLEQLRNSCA
Sequence of full length Max (P61244 whole entry): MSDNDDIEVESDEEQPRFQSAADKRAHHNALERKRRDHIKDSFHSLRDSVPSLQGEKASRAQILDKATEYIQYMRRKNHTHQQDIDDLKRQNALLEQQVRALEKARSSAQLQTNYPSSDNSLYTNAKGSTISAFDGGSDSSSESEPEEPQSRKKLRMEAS

- Max binding (CD) (full length Max): limited Max/HYDRAC binding
Molecule: H16-stat-RRRG7 (peptide 1 NELKRAFAALRDQI) [H1-R PLP]
- heterodimerization with Myc b-HLH-LZ (CD) (b-HLH-LZ domain of Myc): selective Myc/HYDRAC heterodimerization in the low micromolar range

- IC50 [2]: 10.2 µM
Molecule: H17-stat-RRRG6 (peptide 1 NELKRAFAALRDQI) [PLP 5.2]
- Myc pull down [1]: capable of direct endogenous binding to Myc protein

- MYC^T58A protein level (MYC T58A): only minor changes in mutant MYC levels
Molecule: Cn1nc(C(F)(F)F)cc1-c1ccc(OCc2ccc(Cl)cc2)c(-c2ccc(Cl)c(C(F)(F)F)c2)c1O [MYCi975]

Molecule: NELKRAFAALRDQI-NH2 [unpolymerized H1 peptide, NELKRAFAALRDQI, reference compound]
- IC50 [3]: 700 µM

B1: PLP 5.2, H17-stat-RRRG6 (Example 9.4, FIG. 5A) (other)
peptide 1: {norbornene-Ahx}-NELKRAFAALRDQI-NH2
peptide 2: {norbornene-Ahx}-RRRG-NH2
modifications: also: polymerised through N-terminal norbornene by ROMP into polymer backbone, statistical copolymer of both peptides
- IC50 of PC-3 cell viability after 3 days of treatment (CTGlo) [4]: 0.49 µM
